Data as given in patent US20120282637A1 (Sanofi, published 2012).

Assays:
[1] = biological target: T1, sRAGE (V-C1-C2) lot LP08062 (human, UniProt Q15109 23-331, limits assumed); experiment: SPR (Biacore), mAb captured on anti-mouse Fc, sRAGE 15 nM, Langmuir 1:1
T1 construct: domain: V-C1-C2; also called Human RAGE; LP08062 (Rage)
Procedure: The assay is based on a capture assay using immobilized anti-mouse Fc IgG on CM5 chip. For immobilization of anti-Fc antibody HBS-EP was used as running buffer. Standard amine coupling to a CM5 chip was carried out at a contact time of 11 min and a flow rate of 10 μl/min. 10 mM Sodium Acetate pH 5.0 was used as immobilization buffer. The protein concentration (anti-mouse Fc, Biacore BR-1008-38) was 100 μg/mL.
For binding analysis SN anti-RAGE mAb diluted in running buffer at 1/10 (flow rate 5 μl/min) and sRAGE (V-C1-C2) lot LP08062 diluted in running buffer at 15 nM (flow rate 50 μl/min) was used as […], respectively (running buffer: HBS-P+BSA 12 mg/mL+CM Dextran 12 mg/mL and Regeneration solution: 10 mM Glycine pH 1.7). Langmuir 1:1 analysis was used as fitting model.

[2] = biological target: rat sRAGE (rat, UniProt Q63495 23-341, limits assumed); experiment: ELISA, O.D. 450 nm, one bar per species; plate format and antibody concentration not given
rat sRAGE, sequence (Q63495 23-341 limits assumed): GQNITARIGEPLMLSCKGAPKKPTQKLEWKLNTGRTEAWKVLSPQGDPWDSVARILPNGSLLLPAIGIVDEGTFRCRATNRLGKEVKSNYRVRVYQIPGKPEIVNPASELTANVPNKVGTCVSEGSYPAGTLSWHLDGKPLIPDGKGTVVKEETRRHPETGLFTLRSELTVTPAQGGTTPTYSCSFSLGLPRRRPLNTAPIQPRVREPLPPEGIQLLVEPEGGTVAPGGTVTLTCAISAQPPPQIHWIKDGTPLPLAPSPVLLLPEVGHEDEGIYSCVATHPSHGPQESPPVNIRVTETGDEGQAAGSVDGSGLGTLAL

[3] = biological target: mouse sRAGE (mouse, UniProt Q62151 23-340, limits assumed); experiment: as above
mouse sRAGE, sequence (Q62151 23-340 limits assumed): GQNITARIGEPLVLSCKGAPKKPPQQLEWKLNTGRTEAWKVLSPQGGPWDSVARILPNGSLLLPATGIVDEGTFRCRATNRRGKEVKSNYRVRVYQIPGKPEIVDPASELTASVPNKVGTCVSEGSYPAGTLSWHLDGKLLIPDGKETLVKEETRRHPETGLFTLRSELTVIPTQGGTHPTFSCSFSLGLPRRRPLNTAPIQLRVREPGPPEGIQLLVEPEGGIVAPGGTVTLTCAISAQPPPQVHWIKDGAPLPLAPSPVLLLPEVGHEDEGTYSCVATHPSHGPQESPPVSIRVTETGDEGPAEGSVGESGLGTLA

[4] = biological target: T2, RAGE C2 domain (UniProt Q15109 235-327, limits assumed); experiment: domain mapping, Table 1
T2 construct: domain: C2 domain
T2 sequence (Q15109 235-327 limits assumed): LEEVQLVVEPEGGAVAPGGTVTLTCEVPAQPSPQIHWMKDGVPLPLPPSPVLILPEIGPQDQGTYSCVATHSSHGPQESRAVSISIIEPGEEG

T1 sequence (Q15109 23-331 limits assumed): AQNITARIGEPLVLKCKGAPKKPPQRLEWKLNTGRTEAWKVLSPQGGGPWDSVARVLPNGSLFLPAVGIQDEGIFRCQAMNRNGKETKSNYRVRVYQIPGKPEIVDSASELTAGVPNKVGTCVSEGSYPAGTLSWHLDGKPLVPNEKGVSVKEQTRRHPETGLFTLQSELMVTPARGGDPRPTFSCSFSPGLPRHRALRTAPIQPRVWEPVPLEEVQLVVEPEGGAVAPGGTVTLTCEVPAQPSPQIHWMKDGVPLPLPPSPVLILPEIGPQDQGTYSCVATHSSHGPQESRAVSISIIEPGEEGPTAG

Binder	Kd [1]	koff [1]	kon [1]	binding result [2]	binding result [3]	binding result [4]
95 RAGE-1 (antibody, V domains shown, Anti-RAGE monoclonal antibody from a hybridoma, captured by anti-mouse Fc; also called Protein 95 RAGE-1) VH: QVQLQQPGAELVKPGASVKLSCKASGYTFTSYWMHWVKQRPGQGLEWIGESNPSNGRTNYNEKFKNKATLTVDKSSSTAYMQLSSLTSEDSAVYYCARAPYYGFDYWGQGTTLTVSS VL: QAVVTQESALTTSPGETVTLTCRSSTGAVTTSNYANWVQEKPDHLFTGLTGGTNNRAPGVPARFSGSLIGDKAALTITGAQTEDEAIYFCALWYSNHWVFGGGTKLTVL	462 pM	0.00123 s⁻¹	2.66e+06 M⁻¹ s⁻¹	–	–	–
529 RAGE-1 (antibody, V domains shown, Anti-RAGE monoclonal antibody from a hybridoma, captured by anti-mouse Fc) VH: EIQLQQTGPELVKPGASVKISCKASGYSFTDYIMLWVKQSHGKSLEWIGNINPYYGSTFYNLKFKGKATLTVDKSSSTAYMQLNSLTSEDSAVYYCARSDYWYFDVWGAGTTVTVSS VL: QAVVTQESALTTSPGETVTLTCRSSTGAVTTSNYANWVQEKPDHLFTGLIGGTNNRSPGVPARFSGSLIGDKAALTITGAQTEDEAIYFCALWYSNHLVFGGGTKLTVL	552 pM	0.00169 s⁻¹	3.06e+06 M⁻¹ s⁻¹	–	–	–
183 RAGE-1 (antibody, V domains shown, Anti-RAGE monoclonal antibody from a hybridoma, captured by anti-mouse Fc; also called Protein 183 RAGE-1) VH: EVQLQQSGTVLARPGASVKMSCKASGYSFTSYWMHWVKQRPGQGLEWIGAIFPGNSDTTYNQKFKGKAKLTAVTSASTAYMELSSLTNEDSAVYYCTGLRRGFPYWGQGTLVTVSV VL: NIVMTQSPKSMSMSVGERVTLSCKASENVGTYVSWYQQKPEQSPKLLIYGASNRYTGVPDRFTGSGSATDFTLTISSVQAEDLADYHCGQSYSYPYTFGGGTKLEIK	1730 pM	0.00273 s⁻¹	1.58e+06 M⁻¹ s⁻¹	–	–	–
140 RAGE-1 (antibody, V domains shown, Anti-RAGE monoclonal antibody from a hybridoma, captured by anti-mouse Fc; also called Protein 140 RAGE-1) VH: QVQLQQPGAELVKPGASVRLSCKASGYTFTSYWMHWVKQRPGQGLEWIGEINPSNGRTNYNEKFKSKATLTVDKSSSTAYMQLSSLTSEDSAVYYCARDGLGYRPIAMDYWGQGTSVTVSS VL: QIVLTQSPAIMSASPGEKVTISCSASSSVSYMYWYQQKPGSSPKPWIYRTSNLASGVPARFSGSGSGTSYSLTISSMEAEDAATYYCQQYHSYPPMYTFGGGTKLEIK	303 pM	0.00157 s⁻¹	5.19e+06 M⁻¹ s⁻¹	–	–	–
316 RAGE-1 (antibody, V domains shown, Anti-RAGE monoclonal antibody from a hybridoma, captured by anti-mouse Fc; also called Protein 316 RAGE-1) VH: QVQLQQSGPELVRPGASVKMSCKASGYTFTSYWMHWVKQRPGQGLEWIGMIDPSNSETRLNQKFKDKATLNVDKSSNTAYMQLSSLTSEDSAVYYCARNFYGSSLRVWGAGTTVTVSS VL: DIVLTQSPASLAVSLGQRATISCRASKSVSISGYSYLHWNQQKPGQSPKLLIYLASNLESGVPARFSGSGSGTDFTLNIHPVEEEDAATYYCQHSRELPYTFGGGTKLEIK	319 pM	0.00177 s⁻¹	5.54e+06 M⁻¹ s⁻¹	no binding (tested: not given)	no binding (tested: not given)	–
184 RAGE-1 (antibody, V domains shown, Anti-RAGE monoclonal antibody from a hybridoma, captured by anti-mouse Fc; also called Protein 184 RAGE-1) VH: QVQLQQSGAELVRPGTSVKVSCKASGYAFTNYLIEWVKQRPGQGLEWIGMINPGSGGTNYNEKFKGKATLTADKSSSTAYMQLSSLTSDDSAVYFCARGRGGHYRYFDVWGAGTTVTVSS VL: DIVLTQSPASLAVSLGQRATISCRASKSVSTSGYSYMHWYQQKPGQPPKLLIYLASHLESGVPARFSGSGSGTDFSLNIHPVEEEDAATYYCQHSRELPWTFGGGTKLEIK	595 pM	0.00163 s⁻¹	2.74e+06 M⁻¹ s⁻¹	–	–	–
210 RAGE-1 (antibody, V domains shown, Anti-RAGE monoclonal antibody from a hybridoma, captured by anti-mouse Fc; also called Protein 210 RAGE-1) VH: EIQLQQTGPELVKPGASVKISCKASGYSFTDYIMVWVKQSHGKSLEWIGTINPYYGSTSYNLKFKGKATLTVDKSSSTANMQLNSLTSEDSAVYYCARLRLYAMDYWGQGTSVTVSS VL: QAVVTQESALTTSPGETVTLTCRSSTGAVTTSNYANWVQEKPDHLFTGLIGGTNNRAPGVPARFSGSLIGDKAALTITGAQTEDEAIYFCALWYSNHFWVFGGGTKLTVL	276 pM	0.00107 s⁻¹	3.88e+06 M⁻¹ s⁻¹	–	–	–
173 RAGE-1 (antibody, V domains shown, Anti-RAGE monoclonal antibody from a hybridoma, captured by anti-mouse Fc; also called LP08107) VH: EVKLEESGGGLVQPGGSMKLSCVASGFTFSNYWMNWVRQSPEKGLEWVAEIRLKSNNYATHYAESVKGRFTISRDDSKSSVYLQMNDLRAEDPGIYYCIRDYGNYAMDHWGQGTSVTVSS VL: DIVMTQSQKFMSTSVGDRVSVTCKASQNVGTNVAWYQQKPGQSPKALIYSASYRYSGVPDRFTGSGSGTDFTLTISNVQSEDLAEYFCQQYNSYPLTFGAGTKLELK	678 pM	0.00227 s⁻¹	3.35e+06 M⁻¹ s⁻¹	no binding (tested: not given)	no binding (tested: not given)	no binding
250 RAGE-1 (antibody, V domains shown, Anti-RAGE monoclonal antibody from a hybridoma, captured by anti-mouse Fc; also called Protein 250 RAGE-1) VH: EVKLEESGGGLVQPGGSMKLSCVASGFTFSNYWMNWVRQSPEKGLEWVAEIRLKSNNYATHYAESVKGRFTISRDDSKSSVYLQMNNLRAEDTGIYFCIRDYGNYAMDYWGQGTSVTVSS VL: DIVMTQSQKFMSTSVGDRVSVTCKASQNVGTNVAWYQQKPGQSPKALIYSASYRYSGVPDRFTGSGSGTDFTLTISNVQSEDLAEFFCQQYNSYPLTFGAGTKLELK	556 pM	0.00199 s⁻¹	3.58e+06 M⁻¹ s⁻¹	no binding (tested: not given)	no binding (tested: not given)	–

The next lines start with the values.

Kd [1]	koff [1]	kon [1]	binding result [2]	binding result [3]	binding result [4]	Binder
666 pM	0.00227 s⁻¹	3.41e+06 M⁻¹ s⁻¹	no binding (tested: not given)	no binding (tested: not given)	–	347 RAGE-1 (antibody, V domains shown, Anti-RAGE monoclonal antibody from a hybridoma, captured by anti-mouse Fc) VH: QVQLQQSGAELAKPGASVKMSCRASGYTFTDYWMHWVKQRPGQGLEWIGFINPSTVYTEYIPKFKDKATLTADKSSSTAYMQLSSLTSEDSAVYYCARSDGGWYFDVWGAGTTVTVSS VL: DIQMTQSSSYLSVSLGGRVTITCKASDRINYWLAWYQQKPGNAPRLLISGATTLETGVPSRFSGSGSGKDYTLSITSLQTEDVATYYCQQYWSTPYTFGGGTKLELK
516 pM	0.00224 s⁻¹	4.34e+06 M⁻¹ s⁻¹	–	–	–	259 RAGE-1 (antibody, V domains shown, Anti-RAGE monoclonal antibody from a hybridoma, captured by anti-mouse Fc; also called Protein 259 RAGE -1) VH: QVQLQQSGAELVRPGTSVKVSCKASGYAFTNYLIDWVNQRPGQGLEWIGVINPGSGGTNYNEKFTGKATLTADKSSSTAYMQLSSLTSDDSAVYFCARRRVDTMDYWGQGTSVTVSS VL: QAVVTQESALTTSPGETVTLTCRSSTGAVTTSNYANWVQEKPDHLFTGLIGGTNNRAPGVPARFSGSLIGDKAALTITGAQTEDEAIYFCALWYSNHWVFGGGTKLTVL
371 pM	0.00196 s⁻¹	5.29e+06 M⁻¹ s⁻¹	–	–	–	283 RAGE-1 (antibody, V domains shown, Anti-RAGE monoclonal antibody from a hybridoma, captured by anti-mouse Fc; also called Protein 283 RAGE-1) VH: QVQLQQSGAELVRPGTSVKVSCKASGYAFTNYLIEWVKQRPGQGLEWIGVINPGSGGTNYSERFKGKATLTADKSSSTAYMQLSSLTSDDSAVYFCASYRYDGGMDYWGQGTSVTVSS VL: QAVVTQESALTTSPGETVTLTCRSSTGAVTTSNYANWVQEKPDHLFTGLIRGTNNRAPGVPARFSGSLIGDKAALTITGAQTEDEAIYFCALWYSNHWVFGGGTKLTVL
85.8 pM	0.000103 s⁻¹	1.2e+06 M⁻¹ s⁻¹	–	–	–	501-4 RAGE-1 (antibody, V domains shown, Anti-RAGE monoclonal antibody from a hybridoma, captured by anti-mouse Fc) VH: EVMLVDSGGGLVKPGGSLKLSCAASGFTFRSYAMSWVRQTPEKRLEWVATISSGGSYTYYPDSVRGRFTTSRDNGKNTLYLQMSSLRSEDTAMYYCARHGGNYSAWFTYWGQGTLVTVSA VL: QAVVTQESALTTSPGETVTLTCRSSTGAVTTSNYANWVQEKPDHLFTGLIGGTNNRAPDVPARFSGSLIGDKAALTITGAQTEDEAIYFCALWYSNHWVFGGGTKLTVL
793 pM	0.00157 s⁻¹	1.98e+06 M⁻¹ s⁻¹	–	–	–	499 RAGE-1 (antibody, V domains shown, Anti-RAGE monoclonal antibody from a hybridoma, captured by anti-mouse Fc; also called Protein 499 RAGE-1) VH: EVQLQQSGTVLARPGASVKMSCKASGYTFTSYWMHWVKQRPGQGLEWIGAIYPGDSDTYYNQKFKGKAKLTAVTSTSTAYMELSSLTNEDSAVYYCTRNWDYWGQGTTLTVSS VL: DIVMTQSHKFMSTSVGDRVSITCKASQDVSTAVAWYQQKPGQSPKLLIYSASYRYTGVPDRFTGSGSGTDFTFTISSVQAEDLAVYYCQQHYNTPRTFGGGTKLEIK
236 pM	0.00136 s⁻¹	5.76e+06 M⁻¹ s⁻¹	no binding (tested: not given)	no binding (tested: not given)	–	130 RAGE-1 (antibody, V domains shown, Anti-RAGE monoclonal antibody from a hybridoma, captured by anti-mouse Fc; also called Protein 130 RAGE-1) VH: EVQLVESGGGLVKPGGSLKLSCAASGFTFSSYVMSWVRQSPEKRLEWVAEISSGGSYTYYPDTVTGRFTISRDNDKNTLYLEMSSLRSEDTAMYYCARPPYGKDAMDYWGQGTSVTVSS VL: QIVLTQSPAIMSASPGEKVTMTCSASSSVSYMHWYQQKSGTSPKRWISDTSKLASGVPARFSGSGSGTSYSLTISSMEAEDAATYYCQQWSSNPPTFGGGTKLEIK
